Target: FLAG-HA-Twi1p-WT (Tetrahymena thermophila) (UniProt Q8MXZ9)
Test: co-IP

amount co-precipitated after 100 μg/mL RNase A, against the untreated lysate: 60%
Substance: Giw1p (natural protein)
